Results: publication PMC10979099 (The Journal of Biological Chemistry, 2024)

Target: Sra1 (human, UniProt Q7L576 1-1253)
Test: reconstitution and co-purification

Sequence of Sra1 (Q7L576 whole entry): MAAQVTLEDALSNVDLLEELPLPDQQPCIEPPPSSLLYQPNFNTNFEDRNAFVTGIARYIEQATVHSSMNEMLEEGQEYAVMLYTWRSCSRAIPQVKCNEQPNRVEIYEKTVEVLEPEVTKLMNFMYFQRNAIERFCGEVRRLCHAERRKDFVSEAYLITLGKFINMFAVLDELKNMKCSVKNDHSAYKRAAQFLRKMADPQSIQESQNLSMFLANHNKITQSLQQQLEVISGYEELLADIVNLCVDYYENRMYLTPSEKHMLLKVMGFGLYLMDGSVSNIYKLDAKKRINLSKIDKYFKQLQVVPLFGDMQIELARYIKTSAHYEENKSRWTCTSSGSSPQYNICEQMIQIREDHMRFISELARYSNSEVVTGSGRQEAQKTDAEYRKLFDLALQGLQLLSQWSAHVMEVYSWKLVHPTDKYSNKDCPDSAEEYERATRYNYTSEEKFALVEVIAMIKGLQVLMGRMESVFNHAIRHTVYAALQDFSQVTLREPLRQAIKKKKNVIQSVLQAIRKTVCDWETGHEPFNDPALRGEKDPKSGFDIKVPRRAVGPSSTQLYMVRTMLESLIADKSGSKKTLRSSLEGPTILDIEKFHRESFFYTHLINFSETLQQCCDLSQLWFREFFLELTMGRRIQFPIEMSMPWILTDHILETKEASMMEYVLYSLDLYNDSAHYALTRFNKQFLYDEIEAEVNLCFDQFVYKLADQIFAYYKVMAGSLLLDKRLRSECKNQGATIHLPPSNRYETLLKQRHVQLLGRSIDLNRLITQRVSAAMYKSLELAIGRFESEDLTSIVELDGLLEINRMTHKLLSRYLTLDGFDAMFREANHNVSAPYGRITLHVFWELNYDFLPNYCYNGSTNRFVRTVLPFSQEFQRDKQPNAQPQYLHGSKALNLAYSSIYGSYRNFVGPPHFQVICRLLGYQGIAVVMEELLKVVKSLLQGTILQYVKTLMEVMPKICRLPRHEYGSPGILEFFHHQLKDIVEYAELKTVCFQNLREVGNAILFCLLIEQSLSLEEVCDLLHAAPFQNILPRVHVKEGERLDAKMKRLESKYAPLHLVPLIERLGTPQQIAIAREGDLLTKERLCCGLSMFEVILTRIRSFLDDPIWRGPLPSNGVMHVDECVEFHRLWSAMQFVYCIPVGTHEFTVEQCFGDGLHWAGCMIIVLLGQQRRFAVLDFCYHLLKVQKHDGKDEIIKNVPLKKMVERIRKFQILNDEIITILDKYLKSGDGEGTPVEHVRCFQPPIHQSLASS

binding result: binds
B1: Nap1 (natural protein)
chain: MSRSVLQPSQQKLAEKLTILNDRGVGMLTRLYNIKKACGDPKAKPSYLIDKNLESAVKFIVRKFPAVETRNNNQQLAQLQKEKSEILKNLALYYFTFVDVMEFKDHVCELLNTIDVCQVFFDITVNFDLTKNYLDLIITYTTLMILLSRIEERKAIIGLYNYAHEMTHGASDREYPRLGQMIVDYENPLKKMMEEFVPHSKSLSDALISLQMVYPRRNLSADQWRNAQLLSLISAPSTMLNPAQSDTMPCEYLSLDAMEKWIIFGFILCHGILNTDATALNLWKLALQSSSCLSLFRDEVFHIHKAAEDLFVNIRGYNKRINDIRECKEAAVSHAGSMHRERRKFLRSALKELATVLSDQPGLLGPKALFVFMALSFARDEIIWLLRHADNMPKKSADDFIDKHIAELIFYMEELRAHVRKYGPVMQRYYVQYLSGFDAVVLNELVQNLSVCPEDESIIMSSFVNTMTSLSVKQVEDGEVFDFRGMRLDWFRLQAYTSVSKASLGLADHRELGKMMNTIIFHTKMVDSLVEMLVETSDLSIFCFYSRAFEKMFQQCLELPSQSRYSIAFPLLCTHFMSCTHELCPEERHHIGDRSLSLCNMFLDEMAKQARNLITDICTEQCTLSDQLLPKHCAKTISQAVNKKSKKQTGKKGEPEREKPGVESMRKNRLVVTNLDKLHTALSELCFSINYVPNMVVWEHTFTPREYLTSHLEIRFTKSIVGMTMYNQATQEIAKPSELLTSVRAYMTVLQSIENYVQIDITRVFNNVLLQQTQHLDSHGEPTITSLYTNWYLETLLRQVSNGHIAYFPAMKAFVNLPTENELTFNAEEYSDISEMRSLSELLGPYGMKFLSESLMWHISSQVAELKKLVVENVDVLTQMRTSFDKPDQMAALFKRLSSVDSVLKRMTIIGVILSFRSLAQEALRDVLSYHIPFLVSSIEDFKDHIPRETDMKVAMNVYELSSAAGLPCEIDPALVVALSSQKSENISPEEEYKIACLLMVFVAVSLPTLASNVMSQYSPAIEGHCNNIHCLAKAINQIAAALFTIHKGSIEDRLKEFLALASSSLLKIGQETDKTTTRNRESVYLLLDMIVQESPFLTMDLLESCFPYVLLRNAYHAVYKQSVTSSA
